Measurements: patent US20130195871A1 (AbbVie / Abbott, published 2013)
Values belong to the binder of their own block, whether it stands above or below them.

How the values were obtained:
Recombinant Human IGF1R [1] = target: T1, Recombinant Human IGF1R (human, UniProt P08069 31-932); assay: SPR (Biacore)
T1 construct: bought reagent
Procedure: (§1) The BIACORE assay (Biacore, Inc, Piscataway, N.J.) determined the affinity of antibodies or DVD-Ig proteins with kinetic measurements of on-rate and off-rate constants. Binding of antibodies or DVD-Ig proteins to a target antigen (for example, a purified recombinant target antigen) was determined by surface plasmon resonance-based measurements with a Biacore® 1000 or 3000 instrument (Biacore AB, Uppsala. Sweden) using running HBS-EP (10 mM HEPES [pH 7.4], 150 mM NaCl, 3 mM EDTA, and 0.005% surfactant P20) at 25° C. […] For example, approximately 5000 RU of goat anti-mouse IgG, (Fcγ), fragment specific polyclonal antibody (Pierce Biotechnology Inc, Rockford, Ill.) diluted in 10 mM sodium acetate (pH 4.5) was directly immobilized across a CM5 research grade biosensor chip using a standard amine coupling kit according to manufacturer's instructions and procedures at 25 μg/ml. Unreacted moieties on the biosensor surface were blocked with ethanolamine. Modified carboxymethyl dextran surface in flowcell 2 and 4 was used as a reaction surface. Unmodified carboxymethyl dextran without goat anti-mouse IgG in flow cell 1 and 3 was used as the reference surface. For kinetic analysis, rate equations derived from the 1:1 Langmuir binding model were fitted simultaneously to association and dissociation phases of all eight injections (using global fit analysis) with the use of Biaevaluation 4.0.1 software. Purified antibodies or DVD-Ig proteins were diluted in HEPES-buffered saline for capture across goat anti-mouse IgG specific reaction surfaces. Antibodies or DVD-Ig proteins to be captured as a ligand (25 μg/ml) were injected over reaction matrices at a flow rate of 5 μl/minute. The association and dissociation rate constants, kₒₙ (M⁻¹s⁻¹) and koff (s⁻¹) were determined under a continuous flow rate of 25 μl/minute. Rate constants were derived by making kinetic binding measurements at different antigen concentrations ranging from 10-200 nM. The equilibrium dissociation constant (M) of the reaction between antibodies or DVD-Ig proteins and the target antigen was then calculated from the kinetic rate constants by the following formula: KD=koff/kₒₙ. Binding was recorded as a function of time and kinetic rate constants were calculated.

[2] = target: T2, Recombinant Human ErbB3/FC Chimera-His tag (human, UniProt P21860 20-643); assay: SPR (Biacore)
T2 construct: bought reagent
Procedure: as §1

[3] = target: T3, Recombinant Human EGFR ECD (human, UniProt P00533 25-645); assay: SPR (Biacore), N-terminal VD;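 note: capture of antibodies or DVD-Ig proteins on an anti-mouse IgG chip surface, recombinant antigen injected at 10–200 nM in HBS-EP running buffer at 25 °C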
T3 construct: extracellular domain; bought reagent
Procedure: as §1

[4] = target: T3, Recombinant Human EGFR ECD; assay: SPR (Biacore), C-terminal VD;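 note: surface plasmon resonance with DVD-Ig proteins captured on an anti-IgG chip and recombinant antigen flowed over in HBS-EP buffer, Langmuir global fit, KD taken as koff/kon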
Procedure: as §1

Recombinant Human IGF1R [5] = target: T1, Recombinant Human IGF1R; assay: SPR (Biacore), N-terminal VD;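 note: capture of antibodies or DVD-Ig proteins on an anti-mouse IgG chip surface, recombinant antigen injected at 10–200 nM in HBS-EP running buffer at 25 °C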
Procedure: as §1

Recombinant Human IGF1R [6] = target: T1, Recombinant Human IGF1R; assay: SPR (Biacore), C-terminal VD;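 note: surface plasmon resonance with DVD-Ig proteins captured on an anti-IgG chip and recombinant antigen flowed over in HBS-EP buffer, Langmuir global fit, KD taken as koff/kon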
Procedure: as §1

[7] = target: T4, Recombinant Human MSP Receptor ECD-His tag (human, UniProt Q04912 25-957); assay: SPR (Biacore), N-terminal VD;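 note: capture of antibodies or DVD-Ig proteins on an anti-mouse IgG chip surface, recombinant antigen injected at 10–200 nM in HBS-EP running buffer at 25 °C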
T4 construct: extracellular domain; bought reagent; also called RON
Procedure: as §1

Kd (Recombinant Human IGF1R [1]): 5.5 nM
koff (Recombinant Human IGF1R [1]): 0.00014 s⁻¹
kon (Recombinant Human IGF1R [1]): 26000 M⁻¹ s⁻¹
B1: DVD2214 (bispecific antibody)
VH: EVQLVQSGAEVKKPGSSVKVSCKASGGTFSSYAISWVRQAPGQGLEWMGGIIPIFGTANYAQKFQGRVTITADKSTSTAYMELSSLRSEDTAVYYCARAPLRFLEWSTQDHYYYYYMDVWGKGTTVTVSSASTKGPEVQLLESGGGLVQPGGSLRLSCTASGFTFSSYAMNWVRQAPGKGLEWVSAISGSGGTTFYADSVKGRFTISRDNSRTTLYLQMNSLRAEDTAVYYCAKDLGWSDSYYYYYGMDVWGQGTTVTVSS
VL: SSELTQDPAVSVALGQTVRITCQGDSLRSYYATWYQQKPGQAPILVIYGENKRPSGIPDRFSGSSSGNTASLTITGAQAEDEADYYCKSRDGSGQHLVFGGGTKLTVLGQPKAAPDIQMTQFPSSLSASVGDRVTITCRASQGIRNDLGWYQQKPGKAPKRLIYAASRLHRGVPSRFSGSGSGTEFTLTISSLQPEDFATYYCLQHNSYPCSFGQGTKLEIK
notes: DVD-Ig, outer AB075 / inner AB011

Kd (Recombinant Human IGF1R [1]): 5.3 nM
koff (Recombinant Human IGF1R [1]): 0.00013 s⁻¹
kon (Recombinant Human IGF1R [1]): 25000 M⁻¹ s⁻¹
B2: DVD2218 (bispecific antibody)
VH: EVQLVQSGAEVKKPGSSVKVSCKASGGTFSSYAISWVRQAPGQGLEWMGGIIPIFGTANYAQKFQGRVTITADKSTSTAYMELSSLRSEDTAVYYCARAPLRFLEWSTQDHYYYYYMDVWGKGTTVTVSSASTKGPSVFPLAPEVQLLESGGGLVQPGGSLRLSCTASGFTFSSYAMNWVRQAPGKGLEWVSAISGSGGTTFYADSVKGRFTISRDNSRTTLYLQMNSLRAEDTAVYYCAKDLGWSDSYYYYYGMDVWGQGTTVTVSS
VL: B1 VL
notes: as for B1

Kd (Recombinant Human IGF1R [1]): 6.6 nM
koff (Recombinant Human IGF1R [1]): 0.00012 s⁻¹
kon (Recombinant Human IGF1R [1]): 19000 M⁻¹ s⁻¹
B3: DVD2216 (bispecific antibody)
VH: B1 VH
VL: SSELTQDPAVSVALGQTVRITCQGDSLRSYYATWYQQKPGQAPILVIYGENKRPSGIPDRFSGSSSGNTASLTITGAQAEDEADYYCKSRDGSGQHLVFGGGTKLTVLGQPKAAPSVTLFPPDIQMTQFPSSLSASVGDRVTITCRASQGIRNDLGWYQQKPGKAPKRLIYAASRLHRGVPSRFSGSGSGTEFTLTISSLQPEDFATYYCLQHNSYPCSFGQGTKLEIK
notes: as for B1

Kd [2]: 5.6 nM
koff [2]: 0.00022 s⁻¹
kon [2]: 39000 M⁻¹ s⁻¹
B4: DVD2249 (bispecific antibody)
VH: EVQLLESGGGLVQPGGSLRLSCAASGFTFSHYVMAWVRQAPGKGLEWVSSISSSGGWTLYADSVKGRFTISRDNSKNTLYLQMNSLRAEDTAVYYCTRGLKMATIFDYWGQGTLVTVSSASTKGPSVFPLAPQVQLQQWGAGLLKPSETLSLTCAVYGGSFSGYYWSWIRQPPGKGLEWIGEINHSGSTNYNPSLKSRVTISVETSKNQFSLKLSSVTAADTAVYYCARDKWTWYFDLWGRGTLVTVSS
VL: QSALTQPASVSGSPGQSITISCTGTSSDVGSYNVVSWYQQHPGKAPKLIIYEVSQRPSGVSNRFSGSKSGNTASLTISGLQTEDEADYYCCSYAGSSIFVIFGGGTKVTVLGTVAAPDIEMTQSPDSLAVSLGERATINCRSSQSVLYSSSNRNYLAWYQQNPGQPPKLLIYWASTRESGVPDRFSGSGSGTDFTLTISSLQAEDVAVYYCQQYYSTPRTFGQGTKVEIK
notes: DVD-Ig, outer AB116 / inner AB062

Kd [2]: 5.9 nM
koff [2]: 0.0003 s⁻¹
kon [2]: 51000 M⁻¹ s⁻¹
B5: DVD2238 (bispecific antibody)
VH: QVQLQQWGAGLLKPSETLSLTCAVYGGSFSGYYWSWIRQPPGKGLEWIGEINHSGSTNYNPSLKSRVTISVETSKNQFSLKLSSVTAADTAVYYCARDKWTWYFDLWGRGTLVTVSSASTKGPEVQLVESGGGLVQPGGSLRLSCAASGFTFSIYSMNWVRQAPGKGLEWVSYISSSSSTIYYADSVKGRFTISRDNAKNSLYLQMNSLRDEDTAVYYCARDRGDFDAFDIWGQGTMVTVSS
VL: DIEMTQSPDSLAVSLGERATINCRSSQSVLYSSSNRNYLAWYQQNPGQPPKLLIYWASTRESGVPDRFSGSGSGTDFTLTISSLQAEDVAVYYCQQYYSTPRTFGQGTKVEIKRTVAAPDIQMTQSPSSLSASVGDRVTITCQASQDITNYLNWYQQKPGKAPKLLIYDASNLETGVPSRFSGSGSGTDFTFTISSLQPEDIATYNCQQCENFPITFGQGTRLEIK
notes: DVD-Ig, outer AB062 / inner AB063

Kd [2]: 7.6 nM
koff [2]: 0.00051 s⁻¹
kon [2]: 67000 M⁻¹ s⁻¹
B6: DVD2242 (bispecific antibody)
VH: QVQLQQWGAGLLKPSETLSLTCAVYGGSFSGYYWSWIRQPPGKGLEWIGEINHSGSTNYNPSLKSRVTISVETSKNQFSLKLSSVTAADTAVYYCARDKWTWYFDLWGRGTLVTVSSASTKGPSVFPLAPEVQLVESGGGLVQPGGSLRLSCAASGFTFSIYSMNWVRQAPGKGLEWVSYISSSSSTIYYADSVKGRFTISRDNAKNSLYLQMNSLRDEDTAVYYCARDRGDFDAFDIWGQGTMVTVSS
VL: B5 VL
notes: as for B5

Kd [3]: 0.76 nM
koff [3]: 0.00045 s⁻¹
kon [3]: 580000 M⁻¹ s⁻¹
B7: DVD2349 (bispecific antibody)
VH: EVQLVESGGGLVQPGGSLRLSCAASGFSLTNYGVHWVRQAPGKGLEWLGVGWSGGNTDYNTPFTSRLTINKDNSKNTVYLQMNSLRAEDTAVYYCARALTWYDYEFAYWGQGTLVTVSSASTKGPQVQLQESGPGLVKPSQTLSLTCTVSGYSISSDFAWNWIRQPPGKGLEWMGYISYSGNTRYQPSLKSRITISRDTSKNQFFLKLNSVTAADTATYYCVTAGRGFPYWGQGTLVTVSS
VL: DILLTQSPGTLSLSPGERATLSCRASQSIYTNIHWYQQKPGQAPRLLIKYASESISGIPDRFSGSGSGTDFTLTISRLEPEDFAVYYCQQNLNWPTTFGQGTKLEIKRTVAAPDIQMTQSPSSMSVSVGDRVTITCHSSQDINSNIGWLQQKPGKSFKGLIYHGTNLDDGVPSRFSGSGSGTDYTLTISSLQPEDFATYYCVQYAQFPWTFGGGTKLEIK

Kd [4]: 18 nM
koff [4]: 0.00035 s⁻¹
kon [4]: 19000 M⁻¹ s⁻¹
B8: DVD2268 (bispecific antibody)
VH: EVQLVESGGGLVQPGGSLRLSCAASGFTFTDYTMDWVRQAPGKGLEWVADVNPNSGGSIYNQRFKGRFTLSVDRSKNTLYLQMNSLRAEDTAVYYCARNLGPSFYFDYWGQGTLVTVSSASTKGPQVQLQESGPGLVKPSETLSLTCTVSGGSVSSGDYYWTWIRQSPGKGLEWIGHIYYSGNTNYNPSLKSRLTISIDTSKTQFSLKLSSVTAADTAIYYCVRDRVTGAFDIWGQGTMVTVSS
VL: DIQMTQSPSSLSASVGDRVTITCKASQDVSIGVAWYQQKPGKAPKLLIYSASYRYTGVPSRFSGSGSGTDFTLTISSLQPEDFATYYCQQYYIYPYTFGQGTKVEIKRTVAAPDIQMTQSPSSLSASVGDRVTITCQASQDISNYLNWYQQKPGKAPKLLIYDASNLETGVPSRFSGSGSGTDFTFTISSLQPEDIATYFCQHFDHLPLAFGGGTKVEIK

Kd [3]: 8.5 nM
koff [3]: 0.00024 s⁻¹
kon [3]: 28000 M⁻¹ s⁻¹
B9: DVD2348 (bispecific antibody)
VH: QVQLQESGPGLVKPSQTLSLTCTVSGYSISSDFAWNWIRQPPGKGLEWMGYISYSGNTRYQPSLKSRITISRDTSKNQFFLKLNSVTAADTATYYCVTAGRGFPYWGQGTLVTVSSASTKGPEVQLVESGGGLVQPGGSLRLSCAASGFSLTNYGVHWVRQAPGKGLEWLGVGWSGGNTDYNTPFTSRLTINKDNSKNTVYLQMNSLRAEDTAVYYCARALTWYDYEFAYWGQGTLVTVSS
VL: DIQMTQSPSSMSVSVGDRVTITCHSSQDINSNIGWLQQKPGKSFKGLIYHGTNLDDGVPSRFSGSGSGTDYTLTISSLQPEDFATYYCVQYAQFPWTFGGGTKLEIKRTVAAPDILLTQSPGTLSLSPGERATLSCRASQSIYTNIHWYQQKPGQAPRLLIKYASESISGIPDRFSGSGSGTDFTLTISRLEPEDFAVYYCQQNLNWPTTFGQGTKLEIK

Kd [4]: 6.1 nM
koff [4]: 0.00016 s⁻¹
kon [4]: 26000 M⁻¹ s⁻¹
Kd (Recombinant Human IGF1R [5]): 7.4 nM
koff (Recombinant Human IGF1R [5]): 0.00019 s⁻¹
kon (Recombinant Human IGF1R [5]): 26000 M⁻¹ s⁻¹
B10: DVD2284 (bispecific antibody)
VH: EVQLVQSGAEVKKPGSSVKVSCKASGGTFSSYAISWVRQAPGQGLEWMGGIIPIFGTANYAQKFQGRVTITADKSTSTAYMELSSLRSEDTAVYYCARAPLRFLEWSTQDHYYYYYMDVWGKGTTVTVSSASTKGPQVQLQESGPGLVKPSQTLSLTCTVSGYSISSDFAWNWIRQPPGKGLEWMGYISYSGNTRYQPSLKSRITISRDTSKNQFFLKLNSVTAADTATYYCVTAGRGFPYWGQGTLVTVSS
VL: SSELTQDPAVSVALGQTVRITCQGDSLRSYYATWYQQKPGQAPILVIYGENKRPSGIPDRFSGSSSGNTASLTITGAQAEDEADYYCKSRDGSGQHLVFGGGTKLTVLGQPKAAPDIQMTQSPSSMSVSVGDRVTITCHSSQDINSNIGWLQQKPGKSFKGLIYHGTNLDDGVPSRFSGSGSGTDYTLTISSLQPEDFATYYCVQYAQFPWTFGGGTKLEIK

binding result (Recombinant Human IGF1R [6]): no binding (tested: 10-200 nM)
Kd [7]: 23 nM
B11: DVD2340 (bispecific antibody)
VH: QVQLQESGPGLVKPSEILSLTCTVSGGSISSHYWSWVRQPPGKGLEWIGYIYYSGSTNYNPSLKSRVTISVDTSKNQFSLNLSSVTAADTAVYYCARIPNYYDRSGYYPGYWYFDLWGRGTLVTVSSASTKGPEVQLLESGGGLVQPGGSLRLSCTASGFTFSSYAMNWVRQAPGKGLEWVSAISGSGGTTFYADSVKGRFTISRDNSRTTLYLQMNSLRAEDTAVYYCAKDLGWSDSYYYYYGMDVWGQGTTVTVSS
VL: QAVLTQPSSLSAPPGASASLTCTLRSGFNVDSYRISWYQQKPGSPPQYLLRYKSDSDKQQGSGVPSRFSGSKDASANAGILLISGLQSEDEADYYCMIWHSSAWVFGGGTKLTVLRQPKAAPDIQMTQFPSSLSASVGDRVTITCRASQGIRNDLGWYQQKPGKAPKRLIYAASRLHRGVPSRFSGSGSGTEFTLTISSLQPEDFATYYCLQHNSYPCSFGQGTKLEIK
notes: DVD-Ig, outer AB034 / inner AB011
